This passage reports Micropan score results from US6858210B1, “Therapeutic and diagnostic domain 1 β2GPI polypeptides and methods of using same” (La Jolla Pharmaceutical Co., priority 1998, dated 2005).

Where a chain is given by its changes, count along the chain named. Numbers in names are those of the source.

The subject of one test is rabbit anti-human β2GPI. The experiment in a line: Micropanning of mutant domain 1 phage, rabbit antibody. The test is classed as binding. More on the design: key: 0 (<10 colonies) to 4+ (confluent) semiquantitative colony score. The following applies: Table 7B. As to the method:
Error prone PCR was carried out as follows. Domain 1 of human β2GPI was amplified by PCR under conditions that enhance the error rate of Taq polymerase. The primers were such that amino acids 1-64 were amplified. A Sfc 1 restriction site was incorporated as part of amino acid 1. At the 3′ end a Sal 1 restriction site was incorporated after amino acid 64. The PCR reaction was done as described by Leung et al. (1989) Technique 1:11, using 0.25 mM MnCl2. The PCR product was digested with Sfc 1 and Sal 1 and cloned into fd-tet-DOG2 that had been digested with Apal 1 and Sal 1. This positions domain 1 at the N-terminus of pill immediately after the pill signal sequence. The ligation reaction was electroporated in E. coli K91. Phage were harvested and titered by standard methods. Resulting phage clones were assayed using a micropanning technique.
Immulon type 2 plates were coated with protein G. Protein G was prepared at 5 μg/mL in 0.1 M NaHCO3 and 100 μL per well was added to the wells of microtitration plates and incubated overnight at 4° C. After discarding excess protein G solution from plates, each well was blocked with 200 μL 2YT for 1 hour at RT with agitation on an oscillating platform. Tris-buffered saline, pH 7.4/0.5% Tween 20 (TBS/Tween), was used with an automatic plate washer to wash the wells 4 times with 200 μL. One hundred μL human β2GPI-dependent antiphospholipid 6626, 6501, 6701, rabbit β2GPI-dependent antiphospholipid, or control normal IgG, diluted to 2.5 μg/mL with 2YT, was added to washed wells. The plate was incubated for 1 hour at room temperature on a rotating platform.
Phage to be tested by micropanning were obtained from the agar plates generated by biopanning. Each clone to be tested was transferred using sterile toothpicks to a separate well of a round-bottom 96-well microtitration plate (Corning, Corning, N.Y.) containing 200 μL 2YT/Tet per well and cultured overnight at 30° C. Following overnight incubation, phage cultures were centrifuged using a microtitration plate holder at 1300×g for 10 minutes at room temperature. Supernatants constituted the source of “neat” phage. The neat phage were diluted 1: 100-1:1000 and 100 μL was added to the plate containing protein G-bound β2GPI-dependent antiphospholipid antibody-6501 and normal IgG prepared as described above. The incubation of dilute phage with aPL antibody or control IgG was carried out for 2 hours at room temperature on a flat rotator. After 9 washes with TBS/Tween in an automated plate washer, the IgG-bound phage was eluted with 20 μL of 0.2 N HCl-glycine/0.1% BSA, pH 2.2. The elution incubation continued for 10 minutes at RT, during which time a new Corning microtitration plate was prepared containing 20 μL of freshly starved E. coli per well and kept chilled. One hundred forty μL of 29 mM Tris was added to the plate containing the phage eluates in order to neutralize the pH, following which 20 μL of phage suspension was transferred from each well to the corresponding well in the plate containing starved E. coli. After a 10 minute incubation at 37° C., 200 μL 2YT was added and incubation carried out an additional 30 minutes at 37° C. Using multichannel pipettors, 8 μL from each well was spotted on a large 2YT/Tet agar plate while retaining the original 8×12 well pattern and orientation from the last microtitration plate. After allowing the spots to dry for 30 minutes, the plate was incubated overnight at 30° C. The following day, colonies were semiquantitatively scored from 0 to 4+, with 0 symbolizing <10 colonies; 1+=10-30; 2+=30 colonies to 70% confluent; 3+=70%-90% confluent; 4+=confluent.
For Table 7A, the rabbit anti-human β2GPI was performed on two separate occasions. Mutations are listed with the original amino acid, the position number, and the identity of the amino acid at that position in the mutant. […] Non-mutated domain 1 have a score of 3+, while domain 5 phage gave a score of −. Silent mutations are not shown. […]

Test [1] concerns human β2GPI-dependent antiphospholipid antibody. The experiment in a line: Micropanning of mutant domain 1 phage, patient antibodies. The conditions noted are these: Table 7B. The test is classed as binding.

B1: 4G1: phage clone, domain 1 mutant S31P (protein)
chain: GRTCPKPDDLPFSTVVPLKTFYEPGEEITYPCKPGYVSRGGMRKFICPLTGLWPINTLKCTPRV
Consider B1, for which the Micropan score in the test with rabbit anti-human β2GPI (5th column) is 4; in test [1] (antibody 6226), 2; in test [1] (antibody 6501) it was 2; in test [1] (antibody 6632), 2; in test [1] (antibody 6644), 2; in test [1] (antibody 6701), 2. Moreover, in test [1] (antibody 7008), the Micropan score worked out at 2.

B2: 4B12: phage clone, domain 1 mutant T50P (protein)
chain: B1 chain with P31S, T50P
For the molecule B2, the Micropan score is 4 in the test on rabbit anti-human β2GPI (5th column); 1 in test [1] (antibody 6226); 1 in test [1] (antibody 6501); 1 in test [1] (antibody 6632); 1 in test [1] (antibody 6644); 1 in test [1] (antibody 6701). The molecule further displayed a Micropan score in test [1] (antibody 7008) of 1.

B3: 3G1: phage clone, domain 1 multiple mutant R2W, S38T (protein)
chain: B1 chain with R2W, P31S, S38T
Regarding B3, the Micropan score turned out to be 4 in the test with rabbit anti-human β2GPI (5th column); 1 in test [1] (antibody 6226); 1 in test [1] (antibody 6501); 1 in test [1] (antibody 6632); 1 in test [1] (antibody 6644); 1 in test [1] (antibody 6701). Besides, the Micropan score in test [1] (antibody 7008) was 1.

B4: 3A4: phage clone, domain 1 multiple mutant D8A, S13T (protein)
chain: B1 chain with D8A, S13T, P31S
For B4, the Micropan score with rabbit anti-human β2GPI (5th column) was found to be 4; in test [1] (antibody 6226), 3; in test [1] (antibody 6501) it was 3; in test [1] (antibody 6632), 3; in test [1] (antibody 6644) it was 4; in test [1] (antibody 6701), 3. This molecule also came in with a Micropan score in test [1] (antibody 7008) of 3.

B5: SC10: phage clone, domain 1 mutant N56D (protein)
chain: B1 chain with P31S, N56D
For the molecule B5, the Micropan score is on record as 4 with rabbit anti-human β2GPI (1st column); 4 in the test on rabbit anti-human β2GPI (2nd column); 4 with rabbit anti-human β2GPI (3rd column); 4 in the test on rabbit anti-human β2GPI (4th column); 3 in test [1] (antibody 6226); 3 in test [1] (antibody 6501). For the same molecule, the Micropan score in test [1] (antibody 6632) is listed as 3; in test [1] (antibody 6644) it was 3; in test [1] (antibody 6701), 3; in test [1] (antibody 7008) it was 4.

B6: 4D1: phage clone, domain 1 multiple mutant N56T, R63G (protein)
chain: B1 chain with P31S, N56T, R63G
In the case of B6, the Micropan score is 4 in the test on rabbit anti-human β2GPI (5th column); 4 in test [1] (antibody 6226); 2 in test [1] (antibody 6501); 3 in test [1] (antibody 6632); 4 in test [1] (antibody 6644); 4 in test [1] (antibody 6701). The Micropan score in test [1] (antibody 7008) stood at 2.

B7: SC3: phage clone, domain 1 mutant F45S (protein)
chain: B1 chain with P31S, F45S
With B7, the Micropan score in the test with rabbit anti-human β2GPI (1st column) is 4; with rabbit anti-human β2GPI (2nd column), 4; with rabbit anti-human β2GPI (3rd column), 4; in the test with rabbit anti-human β2GPI (4th column), 4; in test [1] (antibody 6226), 3; in test [1] (antibody 6501) it was 1. Also, the Micropan score in test [1] (antibody 6632) is 4; in test [1] (antibody 6644), 4; in test [1] (antibody 6701), 0 (0 symbolizing <10 colonies); in test [1] (antibody 7008), 4.

B8: 3F6: phage clone, domain 1 mutant K44E (protein)
chain: B1 chain with P31S, K44E
Consider B8, for which the Micropan score is 4 with rabbit anti-human β2GPI (5th column); 0 (0 symbolizing <10 colonies) in test [1] (antibody 6226); 0 (0 symbolizing <10 colonies) in test [1] (antibody 6501); 0 (0 symbolizing <10 colonies) in test [1] (antibody 6632); 1 in test [1] (antibody 6644); 0 (0 symbolizing <10 colonies) in test [1] (antibody 6701). The molecule further had a Micropan score in test [1] (antibody 7008) of 2.

B9: 3B4: phage clone, domain 1 mutant S38T (protein)
chain: B1 chain with P31S, S38T
In the case of B9, the Micropan score was 4 in the test with rabbit anti-human β2GPI (5th column); 2 in test [1] (antibody 6226); 3 in test [1] (antibody 6501); 2 in test [1] (antibody 6632); 3 in test [1] (antibody 6644); 2 in test [1] (antibody 6701). This molecule came in with a Micropan score in test [1] (antibody 7008) of 2.

B10: 3C3: phage clone, domain 1 mutant L52P (protein)
chain: B1 chain with P31S, L52P
With B10, the Micropan score in the test on rabbit anti-human β2GPI (5th column) is on record as 4; in test [1] (antibody 6226), 1; in test [1] (antibody 6501), 1; in test [1] (antibody 6632), 0 (0 symbolizing <10 colonies); in test [1] (antibody 6644) it was 1; in test [1] (antibody 6701) it was 1. In test [1] (antibody 7008), the Micropan score was found to be 1.

B11: 3F12: phage clone, domain 1 multiple mutant L10I, P17Q, Y22C (protein)
chain: B1 chain with L10I, P17Q, Y22C, P31S
Regarding B11, the Micropan score is listed as 4 in the test on rabbit anti-human β2GPI (5th column); 1 in test [1] (antibody 6226); 1 in test [1] (antibody 6501); 1 in test [1] (antibody 6632); 1 in test [1] (antibody 6644); 1 in test [1] (antibody 6701). Also, the Micropan score in test [1] (antibody 7008) is listed as 1.

B12: SH1: phage clone, domain 1 mutant K33E (protein)
chain: B1 chain with P31S, K33E
Regarding B12, the Micropan score (in the test with rabbit anti-human β2GPI (1st column); with rabbit anti-human β2GPI (2nd column); with rabbit anti-human β2GPI (3rd column); in the test with rabbit anti-human β2GPI (4th column); in test [1] (antibody 6226); in test [1] (antibody 6501)) was 4 throughout. The Micropan score in test [1] (antibody 6632), in test [1] (antibody 6644), in test [1] (antibody 6701) and in test [1] (antibody 7008) was 4 each time.
